# Reference: patent publication US11555213B2, “Nucleic acid encoding a modified homoserine dehydrogenase” (CJ CHEILJEDANG CORPORATION, priority 2018, dated 2023)
# Changes are numbered by the printed parent chain. Names and notes keep the numbering of the source.
# B1: T285I: Hom (SEQ ID NO: 10), threonine at position 285 mutated to isoleucine (protein)
# chain: MTSASAPSFNPGKGPGSAVGIALLGFGTVGTEVMRLMTEYGDELAHRIGGPLEVRGIAVSDISKPREGVAPELLTEDAFALIEREDVDIVVEVIGGIEYPREVVLAALKAGKSVVTANKALVAAHSAELADAAEAANVDLYFEAAVAGAIPVVGPLRRSLAGDQIQSVMGIVNGTTNFILDAMDSTGADYADSLAEATRLGYAEADPTADVEGHDAASKAAILASIAFHTRVTADDVYCEGISNISAADIEAAQQAGHTIKLLAICEKFTNKEGKSAISARVHPILLPVSHPLASVNKSFNAIFVEAEAAGRLMFYGNGAGGAPTASAVLGDVVGAARNKVHGGRAPGESTYANLPIADFGETTTRYHLDMDVEDRVGVLAELASLFSEQGISLRTIRQEERDDDARLIVVTHSALESDLSRTVELLKAKPVVKAINSVIRLERD
# modifications: Hom (KFCC10881-1)
# B2: G378W: Hom (SEQ ID NO: 12), glycine at position 378 mutated to tryptophan (protein)
# chain: B1 chain with I285T, G378W
# modifications: Hom (KFCC10881-19)
# B3: R398Q: Hom (SEQ ID NO: 11), arginine at position 398 mutated to glutamine (protein)
# chain: B1 chain with I285T, R398Q
# modifications: Hom (KFCC10881-14)
# B4: G378S: Hom (SEQ ID NO: 13), glycine at position 378 mutated to serine (protein)
# chain: B1 chain with I285T, G378S
# modifications: Hom (KFCC10881-22)
# Test system: homoserine dehydrogenase (Hom)
# Test: Measurement of activity of homoserine dehydrogenase in crude extracts, desensitization by L-threonine
# Assay type: biochemical, Corynebacterium glutamicum
# Settings: 10 mM L-threonine, unlike the wild-type Hom
# Description: The activity of the enzyme Hom was measured in the prepared strains. The wild-type strain ATCC13032 in a control group and CTR-T285I, CTR-R398Q, CTR-G378W, and CTR-G378S prepared in Example 4 were inoculated into 25 mL of the seed medium, and then cultured until reaching the late log phase. The cells were recovered by centrifugation, washed twice with a 0.1 M potassium phosphate buffer (pH 7.6), and finally suspended in 2 mL of the same buffer containing glycerol at a concentration of 30%. The cell suspension was physically disrupted by a conventional glass bead vortexing method for 10 minutes, and then the supernatant was recovered through two centrifugations (13,000 rpm, 4° C., 30 minutes) and used as a crude extract for measuring the activity of the enzyme Hom. For the measurement of the activity of Hom, a coenzyme solution (0.1 mL) was added to a reaction solution for measuring the enzyme activity (a potassium phosphate (pH 7.0) buffer, 25 mM NADPH, 5 mM aspartate semi-aldehyde), and then reacted at 30° C. The Hom activity U was defined as the number of NADPH μmol consumed per minute according to the presence of L-threonine (0 mM, 10 mM), and the results of the enzyme activity are shown in Table 2 below.
row,Molecule,inhibition of Hom activity by L-threonine (desensitization)
1,B1,inhibition of the activity was reduced
2,B2,inhibition of the activity was reduced
3,B3,inhibition of the activity was reduced
4,B4,inhibition of the activity was reduced
